# B1: Pistol ribozyme (parent)
# chain: GGGUCGUUGUUCCAUAAUCGCGUGGAUAUGGCACGCAAGUUUCUACCGGGCACCGUAAAUGUCCGACUGGAGCCGUUCGGGCGGCUAUAAACAGACCUCAGGCCCGAAGCGUGGCGGCACCUGCCGCCGGUGGUAAAAAAGAUCGGAAGAGCACACGUCU
# Variants of: B1
# Test: aptazyme ON/OFF ratio, guanine; higher = stronger switching; co-transcriptional cleavage with and without guanine
row,Variant,aptazyme ON/OFF ratio
1,U7C U8G G9C U10A U11G C13U,1.18
2,U7C U8G G9U U10C C13U,2.24
3,U7C U8G G9U U10C C13A,1.15
4,U7C U8G G9U U10C C13G,1.13
5,U7C U8G G9C U10C U11A C12G C13A,1.1
6,U7C U8G G9C U10C U11A C12G C13U,1.12
7,U7C U8G G9C U10C U11A C12G C13G,1.17
8,U7C U8G G9C U10A U11C C12U C13G,1.12
9,U7C U8G G9C U10A U11C C12U C13U,1.09
10,U7C U8G G9C U10A U11C C12U C13A,1.11
11,U7C U8G G9C U10G U11C C12U,1.07
12,U7C U8G G9C U10G U11C C12A,1.24
13,U7C U8G G9C U10G U11C C12G,1.25
14,U7C U8G G9U U10C U11C C12G,1.07
15,U7C U8G G9U U10C U11C C12A,1.07
16,U7C U8G G9U U10C U11C C12U,1.1
17,U7C U8G G9U U10A U11G C13G,1.04
18,U7C U8G G9U U10A U11G C13U,1.28
19,U7C U8G G9U U10A U11G C13A,1.13
20,U7C U8G G9U U10C C12G C13G,1.34
21,U7C U8G G9U U10C C12G C13U,1.25

row,Variant,aptazyme ON/OFF ratio
1,U7C U8G G9U U10C C12G C13A,1.28
2,U7C U8G G9C U10A U11G C12U C13A,1.16
3,U7C U8G G9C U10A U11G C12U C13G,1.12
4,U7C U8G G9C U10A U11G C12U C13U,1.18
5,U7C U8G G9C U10G U11G C12U,1.29
6,U7C U8G G9C U10G U11G C12A,1.18
7,U7C U8G G9C U10G U11G C12G,1.13
8,U7C U8G G9U U10C U11A C13U,1.35
9,U7C U8G G9U U10C U11A C13G,1.24
10,U7C U8G G9U U10C U11A C13A,1.24
11,U7C U8G G9C U10C U11A C13G,1.23
12,U7C U8G G9C U10C U11A C13A,1.21
13,U7C U8G G9C U10C U11A C13U,1.21
14,U7C U8G G9C U10A U11C C12G C13A,1.24
15,U7C U8G G9C U10A U11C C12G C13U,1.3
16,U7C U8G G9C U10A U11C C12G C13G,1.24
17,U7C U8G G9C U10A U11G C12G,1.26
18,U7C U8G G9C U10A U11G C12U,1.31
19,U7C U8G G9C U10A U11G C12A,1.05
20,U7C U8G G9U,3.71
21,U7C U8G G9U U10A U11A C12G C13U,1.2

row,Variant,aptazyme ON/OFF ratio
1,U7C U8G G9U U10A U11A C12G C13G,1.28
2,U7C U8G G9U U10A U11A C12G C13A,1.18
3,U7C U8G G9U U10A C12A C13G,1.15
4,U7C U8G G9U U10A C12A C13U,1.22
5,U7C U8G G9U U10A C12A C13A,1.15
6,U7C U8G G9C U10A U11G C12G C13U,1.18
7,U7C U8G G9C U10A U11G C12G C13G,1.16
8,U7C U8G G9C U10A U11G C12G C13A,1.31
9,U7C U8G G9C U11C C12U C13U,1.07
10,U7C U8G G9C U11C C12U C13A,1.15
11,U7C U8G G9C U11C C12U C13G,1.07
12,U7C U8G G9U U10A U11A C13U,1.22
13,U7C U8G G9U U10A U11A C13A,1.19
14,U7C U8G G9U U10A U11A C13G,1.09
15,U7C U8G G9C U10G U11G,1.23
16,U7C U8G G9C U10G U11C,1.04
17,U7C U8G G9C U10G U11A,1.07
18,U7C U8G G9C U11A,1.86
19,U7C U8G G9C U11G,1.2
20,U7C U8G G9C U11C,1.18
21,U7C U8G G9C U11C C12A C13G,1.09

row,Variant,aptazyme ON/OFF ratio
1,U7C U8G G9C U11C C12A C13A,1.12
2,U7C U8G G9C U11C C12A C13U,2.13
3,U7C U8G G9C U10C U11G C12G,1.09
4,U7C U8G G9C U10C U11G C12A,1.03
5,U7C U8G G9C U10C U11G C12U,1.17
6,U7C U8G G9U U10A U11G C12U,1.19
7,U7C U8G G9U U10A U11G C12A,1.11
8,U7C U8G G9U U10A U11G C12G,1.23
9,U7C U8G G9C U10G,1.47
10,U7C U8G G9C U10C,3.58
11,U7C U8G G9C U10C U11A C12U,1.09
12,U7C U8G G9C U10C U11A C12A,1.08
13,U7C U8G G9C U10C U11A C12G,1.07
14,U7C U8G G9C U10C C12U C13G,1.08
15,U7C U8G G9C U10C C12U C13A,1.05
16,U7C U8G G9C U10C C12U C13U,1.09
17,U7C U8G G9U C13U,1.55
18,U7C U8G G9U C13A,1.31
19,U7C U8G G9U C13G,1.06
20,U7C U8G G9C U10G U11C C12G C13A,1.31
21,U7C U8G G9C U10G U11C C12G C13U,1.24
